In patent US20030092624A1 (YISSUM RESEARCH DEVELOPMENT COMPANY OF THE HEBREW …, published 2003):

T1: Citrate Synthase (CS), Roche Diagnostics (UniProt P00889 28-464)
T1 sequence (looked up): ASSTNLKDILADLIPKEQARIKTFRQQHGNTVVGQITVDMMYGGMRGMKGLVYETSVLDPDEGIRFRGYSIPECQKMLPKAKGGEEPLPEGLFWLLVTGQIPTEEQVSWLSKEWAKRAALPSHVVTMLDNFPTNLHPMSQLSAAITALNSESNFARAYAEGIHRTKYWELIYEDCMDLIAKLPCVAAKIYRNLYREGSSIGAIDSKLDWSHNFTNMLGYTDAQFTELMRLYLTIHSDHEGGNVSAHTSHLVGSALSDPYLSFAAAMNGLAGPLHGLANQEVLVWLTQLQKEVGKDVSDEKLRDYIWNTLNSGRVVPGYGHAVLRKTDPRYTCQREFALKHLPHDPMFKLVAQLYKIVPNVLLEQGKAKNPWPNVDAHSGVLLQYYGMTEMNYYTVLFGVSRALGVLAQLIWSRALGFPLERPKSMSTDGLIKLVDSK

T2: Horseradish Peroxidase (HRP), Sigma (horseradish, UniProt P00433 31-338)
T2 sequence (looked up): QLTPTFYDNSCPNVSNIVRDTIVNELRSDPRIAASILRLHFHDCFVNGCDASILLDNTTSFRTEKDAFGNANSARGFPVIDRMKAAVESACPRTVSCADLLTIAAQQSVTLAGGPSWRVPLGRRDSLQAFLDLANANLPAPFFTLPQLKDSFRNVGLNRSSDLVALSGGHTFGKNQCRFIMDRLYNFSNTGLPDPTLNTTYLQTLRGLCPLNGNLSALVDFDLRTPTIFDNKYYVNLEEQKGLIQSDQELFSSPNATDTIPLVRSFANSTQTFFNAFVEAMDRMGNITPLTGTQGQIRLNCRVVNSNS

B1: native SP1 protein purified from aspen plants (116 kDa oligomer / 12.4 kDa monomer) (other)
chain: MATRTPKLVKHTLLTRFKDEITREQIDNYINDYTNLLDLIPSMKSFNWGTDLGMESAELNRGYTHAFESTFESKSGLQEYLDSAALAAFAEGFLPTLSQRLVIDYFLY
notes: Homo-oligomer; On Western blots the protein was separated by SDS-PAGE first; also called purified SP1; plant SP1 protein

Tests used:
[1] = target: T1, Citrate Synthase (CS), Roche Diagnostics; experiment: cell-based or functional assay
[2] = target: Horseradish Peroxidase (HRP), Sigma (horseradish) (UniProt P00433); experiment: cell-based or functional assay
[3] = target: alpha-amylase (Sigma, A 6380); experiment: cell-based or functional assay
[4] = target: superoxide dismutase (SOD), cosmetic grade ('dismutin', Pentapharm Ltd.); experiment: cell-based or functional assay
[5] = target: T2, Horseradish Peroxidase (HRP), Sigma; experiment: cell-based or functional assay
[6] = target: the molecule itself; experiment: SDS-tricine PAGE; self-association of SP1 monomers

Row | Molecule | remaining CS enzymatic activity at 43° C. after 40 minutes, CS:CBD-SP1 monomeric molar ratio of 1:20 [1] [%] | remaining CS enzymatic activity at 43° C. after 40 minutes, CS:CBD-SP1 ratio of 1:5 [1] [%] | HRP activity rescued after room temperature inactivation [2] [%] | alpha-amylase activity after 2 hours in 2 M CaCl2 [3] [%] | increase in alpha-amylase activity 2 hours after SP1 addition [3] [%] | remaining alpha-amylase activity after one-week incubation at room temperature [3] [%] | SOD activity compared to SP1 untreated SOD [4] [%] | protection of CS activity against heat inactivation at 43° C., CS:SP1 ratio of 1:5, 40 minutes [1] [%] | remaining CS enzymatic activity at 43° C., CS:SP1 ratio of 1:50, 15 minutes [1] [%] | remaining CS enzymatic activity at 43° C., CS:SP1 ratio of 1:50, 40 minutes [1] [%] | protection of HRP activity at 55° C. compared with BSA at 1:300 [5] [fold] | protection of HRP activity at 55° C., HRP:SP1 molar ratio of 1:300, 60 minutes [5] [%] | remaining HRP activity at 55° C., HRP:SP1 molar ratio of 1:300, 2 hours [5] [%] | binding result [6]
1 | recombinant CBD-SP1 fusion protein (32.4 kDa monomer) expressed in E. coli from pET-CBD-180-SP1 | 73 | 33 |  |  |  |  |  |  |  |  |  |  |  | 
2 | B1 |  |  | 10 | 50 | 60 | > 40 | 60 | 22 | ~100 | ≥ 93 | ~3 | > 60 | 53 | binds
